Measurements from patent publication US20040072743A1 (priority 2000, published 2004).

Experiments:
[1] = female, NMRI, mouse, in vivo
[2] = female, NMRI, mouse, in vivo, sc

Substance | oral bioavailability (AUC [p.o. adm]/AUC [i.v. adm])×100% [1] | subcutaneous bioavailability (AUC [s.c.adm]/AUC [i.v. adm])×100% [2]
H-KFFKFFKFFK-achc-b.Ala-TTCTAACATTTA-NH2 [Compound V] | 9% | 68%
H-KFFKFFKFFK-b.cypr-g.abu-ACTTTGTCGCCA-NH2 [Compound IV] | 24% | 78%
H-KFFKFFKFFK-g.abu-PheGly-TTCTAACATTTA-NH2 [Compound VI] | 6% | 62%
H-KFFKFFKFFK-pfPhe-cha-TTCTAACATTTA-NH2 [Compound VII] | 54% | 69%
